# Literature values in paper PMC2847397.
# Biological target: Asp408 (UniProt position 408, GLLVDDAIVVV)
# Experiment: chemical modification
substance,measurement,value
Multidrug efflux pump subunit AcrB (RND transporter) (Escherichia coli),pKa,7.4
